Target: prolactin (PRL), human, untagged (serum PRL; PRL used in cell cultures) (human, UniProt P01229)
Assay: cell-based or functional assay

B1: His-tagged cyclophilin B (CypB), recombinant, purified from Drosophila S2 cells (enzyme, not shown: small tags and cut ends)
chain: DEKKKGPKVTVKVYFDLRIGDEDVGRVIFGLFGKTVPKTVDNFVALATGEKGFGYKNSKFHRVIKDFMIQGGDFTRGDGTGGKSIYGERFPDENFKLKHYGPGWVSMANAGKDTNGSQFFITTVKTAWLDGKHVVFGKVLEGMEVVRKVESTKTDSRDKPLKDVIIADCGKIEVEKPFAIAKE
PRL-driven growth of Nb2 cells (3H-thymidine): ≤ 8 fold

— US7105306 (University of Pennsylvania, dated 2006)
